Data reported in publication PMC8126837 (Proceedings of the National Academy of Sciences of the …, 2021).
Numbering of substitutions follows the chain as printed.

B1: WNb 19 (VHH)
VHH: QVQLQESGGGLVQPGGSLRLSCAASGSMFSINVMGWYRQASGKQRELVAGITRDGATNYSDSVKGRFTISGDNAKNTVYLQMNSLKPEDTAVYYCNTNVDSVWGSRIDYFGQGTQVTVSS
B2: WNb 67 (VHH)
VHH: QVQLQESGGGLVQPGGSLRLSCAVSGFTLDYYAIGWFRQAPGKEREGVSCISSSGGSTNYADSVKGRFTISRDNATNTVYLQMNSLKPEDTAVYYCAAIAATYYGGSYYYQCPHYGMDYWGKGTQVTVSS
B3: WNb 41 (VHH)
VHH: B2 VHH with T76K, S85G, G105S, Y115D
B4: WNb 53 (VHH)
VHH: QVQLQESGGGLVQPGGSLRLSCAASGFTFSSYLMGWARQVPGKGLEWVAGIYSDGSTYYADSVKGRFIISRDNAKNTVYLQMNSLKPEDTAVYYCAKDRMEDSTWPERDFGSWGQGTQVTVSS
B5: WNb 50 (VHH)
VHH: B4 VHH with L33A, A37F, A49S, I68T, K97A, E101A, D102G, T104R
B6: WNb 29 (VHH)
VHH: QVQLQESGGGLVQPGGSLRLSCAFSGRTFSMYAMGWFRQAPGKEREFVAVIDDGGGRTYYADSVKGRFTISRDNAKNTVYLQMNSLKTEDTAVYCCAADMGFGYTIWADSYDYWGQGTQVTVSS
B7: WNb 70 (VHH)
VHH: QVQLQESGGGLVQPGGSLNISCASNGFTLDFYAIGWFRQAPGKEREGVSCISSSGGSSKYSDSVKGRFTISRDNAKNTVYLQMNSLQPEDTAVYYCAAQMGSSEYCPIFIPGEGMDYWGKGTQVTVSS
B8: WNb 4 (VHH)
VHH: B7 VHH with N19R, I20L, S24A, N25S, F31Y, S58T, K59N, S61A, E104R, I110T
B9: WNb 3 (VHH)
VHH: B7 VHH with N19R, I20L, S24A, N25S, F31Y, S58T, K59N, S61A, Q87K, E104R
B10: WNb 20 (VHH)
VHH: QVQLQESGGGLVQPGGSLRLSCAASGFTLEHYAIGWFRQAPGKEREGVSCISNSGGRTNYADSVKGRFTISRDNAKNTVYLQMNSLKPEDTAVYYCAADLGVVERLCPAHPGSYEYDYWGQGTQVTVSS
B11: WNb 26 (VHH)
VHH: QVQLQESGGGLVQAGGSLRLSCVVSGRTFSPYAMGWFRQAPGKEREFVAGMSWSSGKYYADSVKGRFTISRDGAKNAVYLQMNSLKPEDTAVYYCGAGGEGYSRGRVNLQPDFWGQGTQVTVSS
B12: WNb 59 (VHH)
VHH: QVQLQESGGGLVQPGGSLRLSCAASGGTLDYYAIGWFRQAPGKEREGVSCIMSSGGPTYFAGSVKGRFTISRDNAKNTVYLQMNSLKPEDTAVYYCAADPHGFDCSPSGGMDYWGKGTQVTVSS
B13: WNb 1 (VHH)
VHH: QVQLQESGGGLVQAGGSLRLSCAASGRTFDRYAMGWFRQVPGKGLEWVSGIYSDGYTYYADSVKGRFTISRDNAKNTVYLQMNSLKPEDTAVYYCAADRMDGSSWPERDFGSWGQGTQVTVSS
B14: WNb 62 (VHH)
VHH: QVQLQESGGGLVQAGGSLRLSCTASRRTFSTCVMGWARQVPGKGLEWVSGIYSDGSTYYADSVKGRFTISRDNAKNTVYLQMNSLKPEDTAVYYCNLDGRYENLEDDYWGQGTQVTVSS
B15: WNb 5 (VHH)
VHH: QVQLQESGGGLVQAGGSLRLSCAASGRTFSRYAIGWFRQAPGKEREGVSCISPSGGSTNYADSVKGRFTISRDNAKNTVYLQMNSLKPEDTAVYYCAASTPSYHYCSGYVSEYDYWGQGTQVTVSS
B16: WNb 32 (VHH)
VHH: QVQLQESGGGLVQAGGSLGLSCAASGRPLNSYSMAWFRQAPGKEREFVASIGRSDGLSKYNDFVKDRFTLSRGNAKTTLLLQMNNLKVEDTAVYYCSAALWDGWATDINEYDYRGQGTQVTVSS
B17: WNb 34 (VHH)
VHH: QVQLQESGGGLVEAGDSLRLSCAASGRTFSRYAMGWFRQAPGKEREFVAAVSWNGGNTYYADSVKGRFTISRDNAKNTLYLQMNSLKPEDTAVYYCAAGGEPVVVIKLRNANEYDFLGQGTQVTVSS
B18: WNb 24 (VHH)
VHH: B17 VHH with E13Q, D16E, N112D
B19: WNb 33 (VHH)
VHH: B4 VHH with D102G, F110L
B20: WNb 58 (VHH)
VHH: B13 VHH with A14P, R27F, D30S, R31S, Y56S, S104R
B21: WNb 35 (VHH)
VHH: B4 VHH with L33A, A49S, S56T, I68T, K97A, D102G
B22: WNb 54 (VHH)
VHH: B4 VHH with G26R, L33A, A49S, D102G, T104V
B23: WNb 8 (VHH)
VHH: B4 VHH with L33A, A49S, I68T, M100L, D102S, T104S
B24: WNb 9 (VHH)
VHH: B4 VHH with L33A, A49S, A60G, I68T, E101A, D102G, T104S
B25: WNb 52 (VHH)
VHH: B4 VHH with T28I, L33A, A49S, I68T, E88K, M100L, D102G
B26: WNb 11 (VHH)
VHH: B4 VHH with P14A, G16D, F27G, D102G
B27: WNb 14 (VHH)
VHH: B4 VHH with L33A, A49S, D102G, T104S
B28: WNb 22 (VHH)
VHH: B4 VHH with L33A, V48L, A49S, I68T, E101D, D102G, T104V
B29: WNb 45 (VHH)
VHH: B13 VHH with A14P, R27F, D30S, R31S, Y56S, D101E
B30: WNb 63 (VHH)
VHH: B13 VHH with A14P, R27F, D30R, A33L, F37A, Y56S, S104T
B31: WNb 6 (VHH)
VHH: B4 VHH with L33A, A37F, A49S, I68T, V78L, M100L, D102G, T104S, W105R
B32: WNb 13 (VHH)
VHH: B13 VHH with A14P, R27F, D30S, R31S, Y56S, A97T, D101A, S104R
B33: WNb 68 (VHH)
VHH: B4 VHH with Y58H, D61N, I68T, E101A, D102G, T104R, S112F
B34: WNb 60 (VHH)
VHH: B4 VHH with A37F, I68T, K97T, E101D, D102G, T104S
B35: WNb 27 (VHH)
VHH: QVQLQESGGGLVEAGDSLRLSCAASGRTFSRYAMGWFRQAPGKEREFVAAVSWNGGNTYYADSVKGRFTISRDNAKNTLYLQMNSLKPEDTARYYCVADRGESYYYNRDSEYEWWGQGTQVTVSS
B36: WNb 31 (VHH)
VHH: QVQLQESGGGLVQAGDSLRLSCTASGRALNTYTVAWWRQAPGNEREFVASIIWSSGAAWYADAVKGRFTISRDNAKNTVDLQMTSLKPEETAIYFCAVGQWEGRDTWYTSYDYWGQGTQVTVSS
B37: WNb 17 (VHH)
VHH: QVQLQESGGGLVQPGGSLRLSCAASGSIFSINVMGWYRQAPGKQRELVAAITSVGSTNYADSVKGRFTISRDNAENTVYLQMNSLKPEDTAVYYCNAVSTFTQAMGGSPEHYWGQGTQVTVSS
B38: WNb 30 (VHH)
VHH: QVQLQESGGGLVQPGGSLRLSCVASGITLDYYAIGWFRQAPGKEREGVSCLSSSDGSTYYADSVKGRFTMSRDNVKNTVYLQMNSLKPEDTAVYYCATNPLTVVDGTFHLTCLDEYDYGGQGTQVTVSS
B39: WNb 61 (VHH)
VHH: QVQLQESGGGLVQPGGSLNISCASNGFTLDFYAIGWFRQAPGKEREGVSCISRSGSNINYAESLKGRATISRDNAKNTIYLQMSNLRTEDTAVYYCAATPSGVATAQGPCDLTRWYDNWGQGTQVTVSS
B40: WNb 69 (VHH)
VHH: QVQLQESGGGLVQPGGSLRLSCAASGFTLDYYGIGWFRQAPGKEREGVSCISASGTSTKYVNSVKGRFTISRDNAKNTVYLQMNSLKPEDTAVYYCAAISGSYYYTSLHPVEYDSWGQGTQVTVSS
B41: WNb 46 (VHH)
VHH: B40 VHH with L11Q, K43Q, C50S, A53T, K59N, V61A, S115Y
B42: WNb 49 (VHH)
VHH: B40 VHH with C50G, K59N, V61A, N62D, I70V, G101A
B43: WNb 25 (VHH)
VHH: QVQLQESGGGLVQAGGSLRLSCVTSGLTFSRAAMGWFRQAPEKEREFVASIHWRGLNIAYADSVKGRFTISRDDAKNTLYLQMNSLKTEDTAVYYCAAIPFYYFDHISPFSRAAAYWGQGTQVTVSS

The binders below were run against T1, SARS-CoV-2 receptor-binding domain (RBD), wild type (SARS-CoV-2, UniProt P0DTC2, DyLight 488 (NHS ester, about 1.9 dye/protein) in the FRET assay only) (assay: cell-based or functional assay).
In the case of B1, the other is reported as ≤ 80 nM. For B2, the other was ≤ 80 nM. For B3, the other was ≤ 80 nM. In the case of B4, the other is reported as ≤ 80 nM. In the case of B5, the other is reported as ≤ 80 nM.

The binders below were run against T1, SARS-CoV-2 receptor-binding domain … (assay: not given).
B6: binds. B7: binds. B8: binds. B9: binds. B10: binds. B11: binds. B12: binds. B13: binds. B14: binds. B15: binds. B16: binds. B17: binds. B18: binds. B19: binds. B20: binds. B21: binds. B22: binds. B23: binds. B24: binds. B25: binds. B26: binds. B27: binds. B28: binds. B29: binds. B30: binds. B31: binds. B32: binds. B33: binds. B34: binds. B35: binds. B36: binds. B37: binds. B38: binds. B39: binds. B40: binds. B41: binds. B42: binds. B43: binds.
